This is an account of results in publication PMC9969694, “YULINK regulates vascular formation in zebrafish and HUVECs” (Biological Research, 2023).

What all share (experiment): FRET or BRET; FLIM-FRET in HEK-293 T cells 48 h after co-transfection; AcGFP donor on YULINK (full-length or truncated), DsRed acceptor on the partner; mean fluorescence lifetime τ of AcGFP and FRET efficiency E; AcGFP-YULINK alone about 2.71 ns
On the technique in general: In BRET a luciferase serves as donor, and the signal depends on an acceptor being close.

Assay [1] addresses AcGFP-YULINKΔN (human).
In assay [2] the target is AcGFP-YULINKΔC (human).
In assay [3] the target is T1, AcGFP-YULINK (full-length) (human, UniProt Q9NXC5-1 1-875).
T1 construct: YULINK, full-length, conjugated with AcGFP; also called full-length AcGFP-YULINK; source: HEK-293 T, co-transfected, in live cells
T1 sequence (looked up): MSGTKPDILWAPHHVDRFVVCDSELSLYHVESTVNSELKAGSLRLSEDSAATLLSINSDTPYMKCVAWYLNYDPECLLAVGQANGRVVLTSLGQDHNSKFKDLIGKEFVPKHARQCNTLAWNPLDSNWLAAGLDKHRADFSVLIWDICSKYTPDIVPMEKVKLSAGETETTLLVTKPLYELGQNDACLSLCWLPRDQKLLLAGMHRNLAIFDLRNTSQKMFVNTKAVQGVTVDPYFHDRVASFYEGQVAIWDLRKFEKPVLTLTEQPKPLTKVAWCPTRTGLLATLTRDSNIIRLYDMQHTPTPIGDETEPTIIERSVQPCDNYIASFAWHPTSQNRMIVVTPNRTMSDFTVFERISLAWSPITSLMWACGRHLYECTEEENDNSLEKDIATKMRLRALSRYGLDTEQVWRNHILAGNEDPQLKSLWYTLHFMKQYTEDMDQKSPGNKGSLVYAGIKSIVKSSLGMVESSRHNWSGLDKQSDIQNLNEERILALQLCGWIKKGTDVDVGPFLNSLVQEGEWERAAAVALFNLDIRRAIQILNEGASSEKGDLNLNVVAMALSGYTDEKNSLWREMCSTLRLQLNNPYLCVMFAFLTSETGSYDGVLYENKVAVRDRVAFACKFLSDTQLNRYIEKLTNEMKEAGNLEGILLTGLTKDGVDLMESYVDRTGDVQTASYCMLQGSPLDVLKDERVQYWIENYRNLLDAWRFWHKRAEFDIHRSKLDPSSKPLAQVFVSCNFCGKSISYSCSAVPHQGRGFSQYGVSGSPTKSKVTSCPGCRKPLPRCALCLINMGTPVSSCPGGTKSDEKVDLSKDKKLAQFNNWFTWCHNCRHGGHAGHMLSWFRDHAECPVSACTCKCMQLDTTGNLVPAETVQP
The following applies: partners not purified.

In assay [1], “DsRed-RAB33B (from UniProt Q9H082 1-229) (natural protein)” came in with an FRET efficiency E of 36.5% and a mean fluorescence lifetime τ of the donor of 1.72 ns.
In assay [2], “DsRed-TICAM2 (from UniProt Q86XR7 1-235) (natural protein)” came in with an FRET efficiency E of 17.7% and a mean fluorescence lifetime τ of the donor of 2.23 ns. In assay [1], this molecule displayed an FRET efficiency E of 19.6% and a mean fluorescence lifetime τ of the donor of 2.18 ns.

B1: DsRed-EPS15 (natural protein, human, UniProt P42566 1-896, looked up)
chain: MAAAAQLSLTQLSSGNPVYEKYYRQVDTGNTGRVLASDAAAFLKKSGLPDLILGKIWDLADTDGKGILNKQEFFVALRLVACAQNGLEVSLSSLNLAVPPPRFHDTSSPLLISGTSAAELPWAVKPEDKAKYDAIFDSLSPVNGFLSGDKVKPVLLNSKLPVDILGRVWELSDIDHDGMLDRDEFAVAMFLVYCALEKEPVPMSLPPALVPPSKRKTWVVSPAEKAKYDEIFLKTDKDMDGFVSGLEVREIFLKTGLPSTLLAHIWSLCDTKDCGKLSKDQFALAFHLISQKLIKGIDPPHVLTPEMIPPSDRASLQKNIIGSSPVADFSAIKELDTLNNEIVDLQREKNNVEQDLKEKEDTIKQRTSEVQDLQDEVQRENTNLQKLQAQKQQVQELLDELDEQKAQLEEQLKEVRKKCAEEAQLISSLKAELTSQESQISTYEEELAKAREELSRLQQETAELEESVESGKAQLEPLQQHLQDSQQEISSMQMKLMEMKDLENHNSQLNWCSSPHSILVNGATDYCSLSTSSSETANLNEHVEGQSNLESEPIHQESPARSSPELLPSGVTDENEVTTAVTEKVCSELDNNRHSKEEDPFNVDSSSLTGPVADTNLDFFQSDPFVGSDPFKDDPFGKIDPFGGDPFKGSDPFASDCFFRQSTDPFATSSTDPFSAANNSSITSVETLKHNDPFAPGGTVVAASDSATDPFASVFGNESFGGGFADFSTLSKVNNEDPFRSATSSSVSNVVITKNVFEETSVKSEDEPPALPPKIGTPTRPCPLPPGKRSINKLDSPDPFKLNDPFQPFPGNDSPKEKDPEIFCDPFTSATTTTNKEADPSNFANFSAYPSEEDMIEWAKRESEREEEQRLARLNQQEQEDLELAIALSKSEISEA
notes: EPS15 conjugated with DsRed; also called DsRed-ESP15; source: HEK-293 T, co-transfected, in live cells
With B1, in assay [3], the “FRET efficiency E” value amounted to 11.4% and the “mean fluorescence lifetime τ of the donor” value came out at 2.4 ns.

B2: DsRed-RAB33B (natural protein, human, UniProt Q9H082 1-229, looked up)
chain: MAEEMESSLEASFSSSGAVSGASGFLPPARSRIFKIIVIGDSNVGKTCLTYRFCAGRFPDRTEATIGVDFRERAVEIDGERIKIQLWDTAGQERFRKSMVQHYYRNVHAVVFVYDMTNMASFHSLPSWIEECKQHLLANDIPRILVGNKCDLRSAIQVPTDLAQKFADTHSMPLFETSAKNPNDNDHVEAIFMTLAHKLKSHKPLMLSQPPDNGIILKPEPKPAMTCWC
notes: RAB33B conjugated with DsRed; source: HEK-293 T, co-transfected, in live cells
In the case of B2, in assay [3], the “FRET efficiency E” value was found to be 8.1% and the “mean fluorescence lifetime τ of the donor” value is 2.49 ns.
